Reference: US6673357B2, “Alkaloid glycoside for use as a medicament” (University of Southampton, priority 1996, dated 2004)

System: ovalbumin-transfected EL4 (C57BL/6, H-2b thymoma) monoclonal murine cell line
Test: Cytotoxicity assay: T lymphocyte-mediated 51Cr release with spleen cells from immunised mice
Format: cell-based
Details: means of triplicate determinations
Description: Cytotoxic activity mediated by T lymphocytes was measured using the ovalbumin-transfected EL4 (C57BL/6, H-2b thymoma) monoclonal murine cell line as a target. Untransfected EL4 cells were used as negative controls. Spleen cells (3×10^7) from normal or immunised mice primed 14 days earlier were incubated with 1.5×10^6 irradiated (200 Gy) 15-12 cells (gp160 transfectants) or 3T3 cells (which served as controls) for 5 days. Target cells (1×10^6) were labelled with 100 μCi ^51Cr. Target cells were washed three times in RPMI 1640 medium, diluted to 2×10^5 cells/ml, and 50μ (10^4) of target cells added to each microtitre well containing antigen or peptide (10 μM) and preincubated for 30 min. Effector cells were resuspended in complete mdium (CM) to yield a range of effector: target (E:T) ratios. Target cells (10^4) were then incubated at different E:T ratios in a total volume of 200 μl of 10% CM for an additional 4 h. Supernatants (100 μl) were collected and counted for ^51Cr release. Spontaneous release and maximal release values were determined by incubating target cells in 10% CM alone or 0.1% Triton X-100. Percent Cytotoxicity was calculated using the formula: […]
where ER is experimental release, SR is spontaneous release and […] release. The results shown are shown in Table 4 and represent the means of triplicate determinations.

B1: antigen only: antigen (ovalbumin, OVA) given without adjuvants (protein, UniProt P01012 2-386, looked up)
Ovalbumin: GSIGAASMEFCFDVFKELKVHHANENIFYCPIAIMSALAMVYLGAKDSTRTQINKVVRFDKLPGFGDSIEAQCGTSVNVHSSLRDILNQITKPNDVYSFSLASRLYAEERYPILPEYLQCVKELYRGGLEPINFQTAADQARELINSWVESQTNGIIRNVLQPSSVDSQTAMVLVNAIVFKGLWEKAFKDEDTQAMPFRVTEQESKPVQMMYQIGLFRVASMASEKMKILELPFASGTMSMLVLLPDEVSGLEQLESIINFEKLTEWTSSNVMEERKIKVYLPRMKMEEKYNLTSVLMAMGITDVFSSSANLSGISSAESLKISQAVHAAHAEINEAGREVVGSAEAGVDAASVSEEFRADHPFLFCIKHIATNAVLFFGRCVSP
- % of Cytotoxic lysis (E:T ratio 25:1): 19%
- % of Cytotoxic lysis (E:T ratio 50:1): 30%
- % of Cytotoxic lysis (E:T ratio 100:1): 45%
